Assays:
[1] = biological target: Rabbit Integrin αvβ3 (Rabbit); assay: flow cytometry, VX7 rabbit carcinoma cells, 0.5 µg antibody per 5x10^5 cells, against isotype matched control
[2] = biological target: human Integrin αVβ3 (human) (UniProt P06756); assay: flow cytometry, M21 melanoma cells, 0.5 µg antibody per 5x10^5 cells, against isotype matched control
Rat Integrin αvβ3 (Rat) = Rat Integrin αvβ3 (Rat) (UniProt Q8R2H2); assay: flow cytometry, RG2 rat glioma cells, 0.5 µg antibody per 5x10^5 cells, against isotype matched control
Sequence of Rat Integrin αvβ3 (Rat) (Q8R2H2 26-787): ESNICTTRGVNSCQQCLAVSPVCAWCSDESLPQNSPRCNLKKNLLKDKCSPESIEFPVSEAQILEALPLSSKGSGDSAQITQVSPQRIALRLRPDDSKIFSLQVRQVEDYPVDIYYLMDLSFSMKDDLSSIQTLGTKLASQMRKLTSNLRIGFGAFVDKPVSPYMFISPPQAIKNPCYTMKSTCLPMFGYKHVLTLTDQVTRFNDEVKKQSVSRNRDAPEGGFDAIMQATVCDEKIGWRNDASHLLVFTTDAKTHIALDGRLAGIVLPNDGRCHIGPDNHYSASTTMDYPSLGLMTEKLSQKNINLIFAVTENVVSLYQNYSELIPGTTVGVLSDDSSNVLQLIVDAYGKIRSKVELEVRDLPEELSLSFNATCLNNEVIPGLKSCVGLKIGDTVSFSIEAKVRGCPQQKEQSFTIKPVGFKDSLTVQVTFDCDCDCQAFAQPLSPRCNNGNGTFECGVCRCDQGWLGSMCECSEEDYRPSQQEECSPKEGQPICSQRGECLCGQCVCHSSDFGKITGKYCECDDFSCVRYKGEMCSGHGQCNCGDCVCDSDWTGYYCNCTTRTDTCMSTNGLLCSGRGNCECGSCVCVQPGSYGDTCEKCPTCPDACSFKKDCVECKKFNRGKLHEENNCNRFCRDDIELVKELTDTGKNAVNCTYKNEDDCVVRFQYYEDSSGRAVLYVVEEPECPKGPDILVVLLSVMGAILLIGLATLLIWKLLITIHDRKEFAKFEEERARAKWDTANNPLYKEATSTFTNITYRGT

[3] = biological target: Rabbit Integrin αvβ3 (Rabbit); assay: binding of 125I-labeled Vitaxin to RK1 rabbit kidney epithelium cells
[4] = biological target: human Integrin αVβ3 (human) (UniProt P06756); assay: binding of 125I-labeled Vitaxin to HUVEC primary human endothelium
[5] = biological target: Hamster Integrin αvβ3 (Hamster); assay: binding of 125I-labeled Vitaxin to CCL-49 hamster melanoma cells
[6] = biological target: Hamster Integrin αvβ3 (Hamster); assay: flow cytometry, CCL-49 hamster melanoma cells, 0.5 µg antibody per 5x10^5 cells, against isotype matched control
[7] = biological target: Rabbit Integrin αvβ3 (Rabbit); assay: binding of 125I-labeled Vitaxin to VX7 rabbit carcinoma cells
[8] = biological target: human Integrin αVβ3 (human) (UniProt P06756); assay: flow cytometry, HMVEC endothelial cells, 0.5 µg antibody per 5x10^5 cells, against isotype matched control
[9] = biological target: human Integrin αVβ3 (human) (UniProt P06756); assay: binding of 125I-labeled Vitaxin to M21 human melanoma cells
[10] = biological target: Hamster Integrin αvβ3 (Hamster); assay: binding of 125I-labeled Vitaxin to cell lines
[11] = biological target: Rabbit Integrin αvβ3 (Rabbit); assay: binding of 125I-labeled Vitaxin to cell lines

Sequence of human Integrin αVβ3 (human) (P06756 31-1048, chain 1 of 2): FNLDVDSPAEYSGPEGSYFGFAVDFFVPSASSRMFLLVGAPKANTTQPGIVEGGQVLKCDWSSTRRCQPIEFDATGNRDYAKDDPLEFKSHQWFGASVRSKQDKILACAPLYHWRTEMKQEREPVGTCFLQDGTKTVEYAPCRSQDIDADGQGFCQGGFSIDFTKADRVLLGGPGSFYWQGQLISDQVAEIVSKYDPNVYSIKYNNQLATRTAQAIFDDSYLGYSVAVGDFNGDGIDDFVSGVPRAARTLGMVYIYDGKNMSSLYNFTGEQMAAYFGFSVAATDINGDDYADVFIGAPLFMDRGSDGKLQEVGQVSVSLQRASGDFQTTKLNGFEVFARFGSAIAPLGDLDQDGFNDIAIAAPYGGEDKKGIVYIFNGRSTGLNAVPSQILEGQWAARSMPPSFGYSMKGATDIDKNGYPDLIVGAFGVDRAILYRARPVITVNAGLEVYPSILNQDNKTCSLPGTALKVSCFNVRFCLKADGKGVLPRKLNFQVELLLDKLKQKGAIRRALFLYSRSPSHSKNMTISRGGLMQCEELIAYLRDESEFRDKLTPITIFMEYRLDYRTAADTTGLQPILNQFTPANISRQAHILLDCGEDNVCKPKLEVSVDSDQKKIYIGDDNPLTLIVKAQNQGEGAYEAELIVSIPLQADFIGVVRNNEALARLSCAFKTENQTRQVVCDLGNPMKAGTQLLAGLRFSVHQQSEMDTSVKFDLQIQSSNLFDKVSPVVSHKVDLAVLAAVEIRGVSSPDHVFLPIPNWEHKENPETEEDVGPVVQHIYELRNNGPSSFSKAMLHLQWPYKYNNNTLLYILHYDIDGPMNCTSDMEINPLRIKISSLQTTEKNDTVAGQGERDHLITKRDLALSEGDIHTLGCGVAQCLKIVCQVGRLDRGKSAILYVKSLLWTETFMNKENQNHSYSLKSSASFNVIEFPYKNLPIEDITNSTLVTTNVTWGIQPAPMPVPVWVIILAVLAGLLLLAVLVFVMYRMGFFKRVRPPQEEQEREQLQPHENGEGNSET
Sequence of human Integrin αVβ3 (human) (P05106 27-788, chain 2 of 2, further chain): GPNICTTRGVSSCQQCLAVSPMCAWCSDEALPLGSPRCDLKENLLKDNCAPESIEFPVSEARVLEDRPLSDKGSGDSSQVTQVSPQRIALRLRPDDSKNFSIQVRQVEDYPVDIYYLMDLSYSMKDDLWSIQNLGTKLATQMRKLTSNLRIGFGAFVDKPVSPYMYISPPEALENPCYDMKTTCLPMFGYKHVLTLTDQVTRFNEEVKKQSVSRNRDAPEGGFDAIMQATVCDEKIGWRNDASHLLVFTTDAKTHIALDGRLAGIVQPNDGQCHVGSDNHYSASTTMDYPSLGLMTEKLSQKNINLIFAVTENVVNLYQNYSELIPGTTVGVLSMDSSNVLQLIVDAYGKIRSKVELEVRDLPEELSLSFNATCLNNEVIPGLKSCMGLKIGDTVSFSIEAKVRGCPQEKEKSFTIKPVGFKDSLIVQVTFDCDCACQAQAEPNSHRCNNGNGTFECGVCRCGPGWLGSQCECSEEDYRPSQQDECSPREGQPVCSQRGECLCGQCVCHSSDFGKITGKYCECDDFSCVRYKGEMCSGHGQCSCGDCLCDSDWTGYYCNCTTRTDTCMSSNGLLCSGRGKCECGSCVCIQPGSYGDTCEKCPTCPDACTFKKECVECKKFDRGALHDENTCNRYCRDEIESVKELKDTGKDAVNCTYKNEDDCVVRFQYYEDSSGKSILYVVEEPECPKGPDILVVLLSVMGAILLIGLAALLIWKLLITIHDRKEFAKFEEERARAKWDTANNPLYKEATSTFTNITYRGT

Row | Substance | Fold Increase Over Control (mean channel fluorescence) [1] | Fold Increase Over Control (mean channel fluorescence) [2] | Fold Increase Over Control (mean channel fluorescence) (Rat Integrin αvβ3 (Rat)) | Binding Sites (binding sites) [3] | Kd [3] | Binding Sites (binding sites) [4] | Kd [4] | Kd [5] | Fold Increase Over Control (mean channel fluorescence) [6] | Binding Sites (binding sites) [7] | Kd [7] | Fold Increase Over Control (mean channel fluorescence) [8] | Binding Sites (binding sites) [9] | Kd [9] | fold lower affinity than for human αvβ3 [10] | fold lower affinity than for human αvβ3 [11]
1 | F11, mouse anti-rat β3 mAb (antibody) | 1 fold | 0.99 fold | 11 fold |  |  |  |  |  |  |  |  |  |  |  |  | 
2 | Vitaxin® (humanized monoclonal antibody MEDI-522) | 17 fold | 73 fold | 0.95 fold | 42000 | 23 nM | 81000 | 3.3 nM | 6.9 nM | 12 fold | 160000 | 8.9 nM | 8.9 fold | 130000 | 2.2 nM | 2 to 3 fold | 4 to 10 fold
3 | LM609, mouse anti-human αVβ3 Integrin mAb (antibody) | 3 fold | 65 fold | 2.3 fold |  |  |  |  |  | 7.2 fold |  |  | 4.3 fold |  |  |  | 

From US20040001835A1, “Prevention or treatment of cancer using integrin alphavbeta3 antagonists in combination with other agents” (MedImmune, Inc., priority 2002, published 2004)
